According to patent publication US20260103686A1, “MICROBIAL STRAIN, PROTEIN, AND METHOD FOR PRODUCING GALLIC ACID USING MICROBIAL STRAIN OR PROTEIN” (UNIVERSITY OF TSUKUBA, priority 2022, published 2026):
Numbering of substitutions follows the chain as printed. Numbers in names are those of the source.

B1: Hylemonella gracilis-derived PobA (HgPobA), protocatechuic acid 5-hydroxylase, wild type, SEQ ID NO: 20 (Hylemonella gracilis ATCC 19624) (protein)
chain: MSYPTRTQVAIIGAGPSGLMLGALLHKAGIDTVVLERQSGDYVLGRIRAGVLEQVTMDLMDEIGVGARMHQEGLVHGGFDMLFQGQRHRIDMNRLTGGQNVMVYGQTEVTRDLMDARQQAGLTTIYEAANVAIHDFGSGKPRVTYEKDGKTHELQCDFIAGCDGFHGVCRDTVKKSASASAIREYEKVYNFGWLGLLSDTPPVHHELIYVNSERGFALCSQRSATRSRYYLQVPLTDKVEQWSDQAFWDELKLRLDPQAREHLVTGPSIEKSIAPLRSFVTEPLRFGRLFLAGDAGHIVPPTGAKGLNLAATDVKYLSAALTEFYQGKSEAGINHYSERCLKRIWRAERFSWWFTSLMHRFPENGEIGQKLQEAELDYIVHSETGARSVAENYVGLPLDFGA
B2: Hylemonella gracilis-derived PobA (HgPobA, SEQ ID NO: 20) variant HgPobA-TY, T302A/Y393F (gene SEQ ID NO: 37) (Hylemonella gracilis ATCC 19624; T302A/Y393F) (protein)
chain: B1 chain with T302A, Y393F

How the values were obtained:
Assay in all cases: purified protein, by the assay type
[1] = substrate: O=C(O)c1ccc(O)c(O)c1; assay type: biochemical, Hylemonella gracilis; conditions: other: PCA substrate, 200 µM NADPH, 10 µM FAD, pH 7.9, 25° C., 340 nm
Protocol: (§1) The cell-free extracts were subjected to a HisTrap HP column (GE healthcare) which was equilibrated with an equilibration buffer (20 mM Tris-HCl buffer (pH 7.9), 20 mM imidazole), and then fractions eluted with an eluent (20 mM Tris-HCl buffer (pH 7.9), 500 mM imidazole) were collected.
The protein concentrations of the purified enzyme liquids were measured using Bio-Rad Protein Assay Dye Reagent Concentrate (Bio-Rad, USA), and the purified enzyme liquids were diluted to 1 of mg/mL with a buffer. Thus, purified enzyme liquids protocatechuic acid 5-hydroxylases, HgPobA, HyPobA, PoPobA, HgPobA-TY and PaPobA, were prepared.
Using the purified enzyme liquids of HgPobA, HgPobA-TY, PoPobA, HyPobA and PaPobA described above, a reaction kinetic analysis was conducted.

[2] = substrate: O=C(O)c1ccc(O)cc1; conditions: other: pHBA substrate, 200 µM NADPH, 10 µM FAD, pH 7.9, 25° C., 340 nm
[3] = substrate: O=C(O)c1ccc(O)c(O)c1; conditions: other: PCA substrate, 200 µM NADPH, 10 µM FAD, pH 7.9, 25° C., 340 nm
Protocol: as §1
The protein concentrations of the purified enzyme liquids were measured using Bio-Rad Protein Assay Dye Reagent Concentrate (Bio-Rad, USA), and the purified enzyme liquids were diluted to 1 of mg/mL with a buffer.

Row | Protein | Km [1] | kcat [1] | kcat/Km [1] | Km [2] | kcat [2] | kcat/Km [2] | Km [3]
1 | B1 | 260 µM | 0.74 s⁻¹ | 2800 M⁻¹ s⁻¹ | 35 µM | 5.6 s⁻¹ | 160000 M⁻¹ s⁻¹ | 
2 | B2 |  |  |  | 34 µM | 3.1 s⁻¹ | 91000 M⁻¹ s⁻¹ | 41 µM
